Residue numbers refer to the chain shown, from its start.

Common to all, as to experiment: fluorescence polarization; FP: 50 mM HEPES pH 7.0, 150 mM NaCl, 10 nM probe, temperature not stated; EMSA: 50 mM HEPES-KOH pH 7.8, 50 mM NaCl, 0.2 ug poly(dI:dC), 0.2 ug/ul BSA, room temperature 15 min
A general note: Fluorescence polarisation rises when a labelled molecule tumbles more slowly, as on binding a larger partner.

Data set [1] concerns the target T1, Metnase transposase domain WT (UniProt Q53H47 342-684).
T1 sequence: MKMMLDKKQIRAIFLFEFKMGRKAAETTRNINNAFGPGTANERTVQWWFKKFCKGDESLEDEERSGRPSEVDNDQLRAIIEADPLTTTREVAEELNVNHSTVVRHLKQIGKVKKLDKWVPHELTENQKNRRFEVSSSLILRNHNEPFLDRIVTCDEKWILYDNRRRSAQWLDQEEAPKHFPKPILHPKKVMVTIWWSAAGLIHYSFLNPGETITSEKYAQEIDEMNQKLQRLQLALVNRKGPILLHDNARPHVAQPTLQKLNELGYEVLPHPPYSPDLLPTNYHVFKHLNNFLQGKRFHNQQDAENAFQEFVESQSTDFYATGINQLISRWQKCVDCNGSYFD
The note with it: protein: recombinant, tags: His6-SUMO cleaved by Ulp1.

For data set [2], the target named is T2, Metnase transposase domain N610E (UniProt Q53H47 342-684, N623E).
T2 sequence: T1 sequence with N282E
The note with it: protein: recombinant; tags: His6-SUMO cleaved by Ulp1; label: 5' rhodamine; single strand.

The next data set deals with T3, Mos1 transposase D284N (UniProt Q7JQ07 1-345, D284N).
T3 sequence: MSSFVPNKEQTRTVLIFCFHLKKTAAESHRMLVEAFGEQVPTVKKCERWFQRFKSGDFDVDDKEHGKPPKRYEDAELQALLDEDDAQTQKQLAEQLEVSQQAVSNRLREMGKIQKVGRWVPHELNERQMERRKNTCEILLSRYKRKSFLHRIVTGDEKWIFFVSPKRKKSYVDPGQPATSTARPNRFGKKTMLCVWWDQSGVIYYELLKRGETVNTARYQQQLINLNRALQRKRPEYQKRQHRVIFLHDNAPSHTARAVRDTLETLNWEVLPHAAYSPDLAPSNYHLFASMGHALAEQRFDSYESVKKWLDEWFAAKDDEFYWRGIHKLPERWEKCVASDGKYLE
The note with it: protein: recombinant; tags: His6-SUMO cleaved by Ulp1; label: 5' rhodamine; single strand.

Data set [3] has as its target T4, Metnase catalytic domain WT (UniProt Q53H47 446-684).
T4 sequence: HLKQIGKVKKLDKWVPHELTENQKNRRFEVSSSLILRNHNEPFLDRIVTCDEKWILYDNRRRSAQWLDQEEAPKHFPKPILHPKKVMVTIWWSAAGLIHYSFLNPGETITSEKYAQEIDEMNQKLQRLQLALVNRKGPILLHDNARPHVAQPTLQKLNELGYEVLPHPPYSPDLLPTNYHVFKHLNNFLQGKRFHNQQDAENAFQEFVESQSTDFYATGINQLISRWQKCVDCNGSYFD
The note with it: protein: recombinant, tags: N-terminal His tag removed by thrombin.

The target of data set [4] is T5, Metnase DNA-binding domain WT (UniProt Q53H47 342-453).
T5 sequence: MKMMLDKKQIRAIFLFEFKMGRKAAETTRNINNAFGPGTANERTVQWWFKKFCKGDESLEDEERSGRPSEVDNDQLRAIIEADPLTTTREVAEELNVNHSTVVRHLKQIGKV
To be noted: protein: recombinant, tags: His6-SUMO cleaved by Ulp1.

Data set [5] addresses T6, Metnase transposase domain N610D (UniProt Q53H47 342-684, N623D).
T6 sequence: T1 sequence with N282D
The note with it: protein: recombinant; tags: His6-SUMO cleaved by Ulp1; label: 5' rhodamine; single strand.

In another data set the target is T7, Mos1 transposase WT (UniProt Q7JQ07 1-345).
T7 sequence: T3 sequence with N284D
To be noted: protein: recombinant; tags: His6-SUMO cleaved by Ulp1; label: 5' rhodamine; single strand.

Where [6] appears, read: label: 5' rhodamine, single strand.
[7] abbreviates: label: 5' rhodamine on strand 1, blunt.

B1: 25/31-mer TIR partial duplex (dsDNA)
DNA 1: AACCGCAATTACTTTTGCACCAACC
DNA 2: TCAGTAGGTTGGTGCAAAAGTAATTGCGGTT
modifications: 5' C6-amino linker on strand 1
Broadly, the Kd is the equilibrium constant for the complex coming apart. Regarding B1, the Kd in data set [1] (chain copies: 2, label: 5' rhodamine on strand 1, 5' overhang 6 nt on strand 2) stood at 0.0119 ± 0.0025 µM.

As for AACCGCAATTACTTTTGCACCAACC (ssDNA, 5' C6-amino linker) [25-nt TIR ssDNA], the Kd in data set [2] turned out to be 3.2 ± 0.4 µM; in data set [1] (setting [6]) it was 0.277 ± 0.026 µM; in the data set with Mos1 transposase D284N it was 0.033 ± 0.012 µM; in data set [3] (setting [6]), 0.295 ± 0.047 µM; in data set [5], 3.3 ± 1.1 µM; in the data set with Mos1 transposase WT it was 0.033 ± 0.009 µM. The binding result in data set [4] (setting [6]) is reported as “no binding”.

B2: 28-bp blunt TIR dsDNA (dsDNA)
DNA 1: AACCGCAATTACTTTTGCACCAACCTAA
DNA 2: TTAGGTTGGTGCAAAAGTAATTGCGGTT
modifications: 5' C6-amino linker on strand 1
Take B2: the Kd in data set [1] (chain copies: 2, label: 5' rhodamine on strand 1, blunt) was found to be 0.0079 ± 0.0019 µM; in data set [3] (setting [7]), 4.7 ± 0.8 µM; in data set [4] (setting [7]) it was 0.0032 ± 0.0009 µM.

Values taken from PMC4036204, “The DDN Catalytic Motif Is Required for Metnase Functions in Non-homologous End Joining (NHEJ) Repair and Replication Restart*”.
